The values below come from publication PMC8079763 (2021).

Experiment [1] addresses GST tagged ecto-basigin (recombinant mouse basigin) (mouse (C57BL/6J)) (UniProt P18572). In words: SPR; Biacore X100; recombinant mouse basigin (GST tagged) immobilised on CM5 chip by amine coupling; PyEBL regions as analytes; HBS-EP+ (10 mM HEPES pH 7.4, 150 mM NaCl, 3 mM EDTA, 0.05% P20); single-cycle kinetics, 1:1 binding model. A general note: Surface plasmon resonance follows binding to a sensor surface in real time, without labels.

Experiment [2] deals with T1, GST tagged ecto-basigin (recombinant mouse basigin) (mouse (C57BL/6J), UniProt P18572 22-325).
T1 chain: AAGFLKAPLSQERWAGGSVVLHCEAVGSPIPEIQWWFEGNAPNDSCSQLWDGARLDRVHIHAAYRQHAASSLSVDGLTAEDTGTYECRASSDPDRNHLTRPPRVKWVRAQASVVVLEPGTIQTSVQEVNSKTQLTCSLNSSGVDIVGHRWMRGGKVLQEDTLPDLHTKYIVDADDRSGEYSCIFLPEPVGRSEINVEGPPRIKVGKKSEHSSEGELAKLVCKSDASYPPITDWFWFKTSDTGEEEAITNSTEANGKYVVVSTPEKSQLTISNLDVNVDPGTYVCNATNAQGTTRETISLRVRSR
The experiment can be described thus: SPR.

On to “recombinant PyEBL R1-2 (amino acid V28-G437) (domain or fragment)”, for which the Kd in experiment [1] turned out to be 16 nM.
The same measure, in the same setting: the figure for “recombinant PyEBL R2, the N-terminal Cys-rich Duffy binding-like region (E113-G437) (domain or fragment)” is 34 nM; for “recombinant PyEBL ectodomain spanning region 1 to region 6 (PyEBL R1-6; amino acids V28-N788) (domain or fragment)” it is 33 nM; for “recombinant PyEBL C351Y (domain or fragment)” it is 26 nM.

B1: recombinant PyEBL R2, the N-terminal Cys-rich Duffy binding-like region (E113-G437) (domain or fragment)
chain: EKNGNVNYKDYFDKYQVNECKEKNKNEIHAWICDNEKQNCIPSRRINLCTKRLEIIPDTIKIPDNKTKELLMDYFKQFIYKDAAREGELLLNKYDDKNNNEYCNDMINSFGDYKNIVEGTGLKNVANESLLELKIQNIFGTDDNAKRNRKTWWKNHEHIVWKAMVLGKNFNETSNYKNVCTNYKLEDYHSQIERWTREWIQEFSVQYFKEANKINNKCTKKSNISTESICINNECKNACNTYEAWISVNKSKWDTLLQRFSQFNKSYFSEETCRDKAYNSLMIEFKEAYEANFENVINLDDDHYTGLCVCSSVKPSNTPINNNLG
Turning to B1, in experiment [2], the koff is 0.00104 s⁻¹.

B2: recombinant PyEBL ectodomain spanning region 1 to region 6 (PyEBL R1-6; amino acids V28-N788) (domain or fragment)
chain: VNLLKRTYESFQSFPLKNNSGNRILYELKESLYNIENGETWGDLVSKDNEIFGGKDHILSENYTSDSVNSKKESNFLETGKISLVEKNGNVNYKDYFDKYQVNECKEKNKNEIHAWICDNEKQNCIPSRRINLCTKRLEIIPDTIKIPDNKTKELLMDYFKQFIYKDAAREGELLLNKYDDKNNNEYCNDMINSFGDYKNIVEGTGLKNVANESLLELKIQNIFGTDDNAKRNRKTWWKNHEHIVWKAMVLGKNFNETSNYKNVCTNYKLEDYHSQIERWTREWIQEFSVQYFKEANKINNKCTKKSNISTESICINNECKNACNTYEAWISVNKSKWDTLLQRFSQFNKSYFSEETCRDKAYNSLMIEFKEAYEANFENVINLDDDHYTGLCVCSSVKPSNTPINNNLGYKQTLETQNPTDASQNTLFPPFSTGTETDLFKEDDDDNGGFDLLSYNNADAQNLRNSTPTDQVGVNNEQNKLNQNAESNNKYELQIMGNHANSDNTYHNIIIPSQENNIYTSTPESVTINPTSTSNTNENQTLTPNSTLTPTLTSNSNPTQIPTQPQPQFPIPPQPQFPIPPETQFPIPPETQIPTPTLNPNATNKGVKEHHFNTNGIENGNTMKDQMNIPPIKFNIDPKHDNTINGGFSRINNDNDSENANKLGIDEYEHRDIKKSRENIIMLANENVCNGNPGLKYCESINNKYFHGTCSKSQTQNLCCSISNYCIKFFNINSKKYYDCMNEEFMAPDYNCFQKESYSN
B2: the koff in experiment [2] was found to be 0.00106 s⁻¹.

B3: recombinant PyEBL R1-2 (amino acid V28-G437) (domain or fragment)
chain: VNLLKRTYESFQSFPLKNNSGNRILYELKESLYNIENGETWGDLVSKDNEIFGGKDHILSENYTSDSVNSKKESNFLETGKISLVEKNGNVNYKDYFDKYQVNECKEKNKNEIHAWICDNEKQNCIPSRRINLCTKRLEIIPDTIKIPDNKTKELLMDYFKQFIYKDAAREGELLLNKYDDKNNNEYCNDMINSFGDYKNIVEGTGLKNVANESLLELKIQNIFGTDDNAKRNRKTWWKNHEHIVWKAMVLGKNFNETSNYKNVCTNYKLEDYHSQIERWTREWIQEFSVQYFKEANKINNKCTKKSNISTESICINNECKNACNTYEAWISVNKSKWDTLLQRFSQFNKSYFSEETCRDKAYNSLMIEFKEAYEANFENVINLDDDHYTGLCVCSSVKPSNTPINNNLG
On to B3, for which the koff in experiment [2] was 0.00713 s⁻¹.

In general, Kd refers to the free concentration of one partner at which half of the binding sites on the other are occupied at equilibrium, for simple one-to-one binding. For orientation: koff means the first-order rate constant of dissociation.
